According to the supplement of paper PMC9170038:

System: MS2 coat protein
Assay: apparent KD of MS2 coat protein; designed switch direction (-1 OFF switch, 1 ON switch): -1; higher = weaker reporter binding
In short: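 Designed RNA switches with common flanks were made on Illumina chips by stalled E. coli RNA polymerase. Titration with SNAP-549-labelled MS2 coat protein doubled from 0.7 or 1.5 nM up to 3 µM. Apparent KD is each design's median over clusters after curve-fitting normalised fluorescence.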

[1] = input ligand: microRNA oligo, concentration not stated
[2] = Eterna round: R95, input ligand: FMN 200 uM
[3] = Eterna round: R95, input ligand: microRNA oligo, concentration not stated
[4] = Eterna round: R95, input ligand: none

Sequence	apparent KD of MS2 coat protein (input ligand: FMN 200 uM)	apparent KD of MS2 coat protein (input ligand: none)	apparent KD of MS2 coat protein [3]	further results
AAGAAAGACGAAGGAUAUUCAGGCGCCGAAGUAGAAGAAGGUCGUCCGGGUGUCCUAAAACUUGAGGAUCACCCAAGUAGAAGA [Mutated MS2 EX1.2] (Eterna round: R96, puzzle: Exclusion NG 1)	62.1 nM	25.5 nM		apparent KD of MS2 coat protein [1]: 6.43 nM
AAGAAGCAAGGAUAUACAGAGGAGAGUAAAGCAAGAGGAGAACAUGAGGAUCACCCAUGUAGAAGGUGCAGAGA [JR_Exclu2_Sub018] (puzzle: Exclusion 2)			20.3 nM	apparent KD of MS2 coat protein [2]: 40.3 nM; apparent KD of MS2 coat protein [4]: 29.1 nM
AAGAGUGCAGGAUAUACUUGAUAGGGUAAGGUGAGUGAGGGACAUGAGGAUCACCCAUGUAGAAGGGCAGAGAG [JR_Exclu2_Sub058] (puzzle: Exclusion 2)			33.4 nM	apparent KD of MS2 coat protein [2]: 25.8 nM; apparent KD of MS2 coat protein [4]: 26.3 nM
AAGAUGUCAGGAUAUUAGUAGUAAAUAAAUAAAAUUAUUACUGAGAAGGGACAUGAGGAUCACCCAUGUGCCUU [Salish 062 v10] (Eterna round: R97, puzzle: Exclusion 4)	16.4 nM	16.9 nM		
AAGAUGUGAGGAUAUCACGAAGGCGUCAAACUGACGCCUUCUGAGAAGGCACAUGAGGAUCACCCAUGUCCAAA [EX4 A.23] (Eterna round: R97, puzzle: Exclusion 4)	325 nM	58.6 nM		
AAGCAUGGAGGAUAUACAUGAGGAUCACCCAUGUCCAGGUCCACGGGUAUUUUGUUGCGUAGAAGGCCAUGUAG [Eternabot (L2) Solution 21] (Eterna round: R97, puzzle: Exclusion 3)	242 nM	46.8 nM		
AAGCAUUGCCAAAGGUAGUGCUUUACAUGAGGAUCACCCAUGUAGGAUAUGGUAGGCAAAGCUUACCAGAAGGACAUGAUAAUU [Mat - Exclusion NG 3 - Mod of JL - D13] (Eterna round: R96, puzzle: Exclusion NG 3)	151 nM	47.9 nM		apparent KD of MS2 coat protein [1]: 47.4 nM
AAGCCACAUGAGGAUCACCCAUGUCAGGAUAUCUCGAAAAGCAUAGAAAUAUGCGAAGAGAGAAGGGACUACUC [ChP Ext 10-04-2015 #4] (puzzle: Exclusion 1)			42.7 nM	
AAGCCCUGAGGAUAUCCCAACUCGCACAUGAGGAUCACCCAUGUCCUCCUCCGGGCUUCGGGAGAAGGCAGGUCUC [Megrez-7.8] (Eterna round: R97, puzzle: Exclusion 5)	186 nM	25.7 nM		
AAGGAUAGAGGAUAUACAUAGAUACAGAUUCAUGUGGAACUACAUGAGGAUCACCCAUGUAGAAGGCUAUCCUA [Fiskers Ex 2 - 9] (puzzle: Exclusion 2)			35.9 nM	
AAGGAUAGAGGAUAUAUAUAGAUACAGAUUCAUGUAGAACUACAUGAGGAUCACCCAUGUAGAAGGCUAUCCUA [Fiskers Ex 2 - 10] (puzzle: Exclusion 2)			14.7 nM	
AAGGGUGCUUUCGGAACGACAUGAGGAUCACCCAUGUAGACUGAGGAUAUCUACUUCUAAGGACGGGAGAAGGCAGUGUAAUGU [Ex NG3 #70] (Eterna round: R96, puzzle: Exclusion NG 3)	44.5 nM	39.8 nM		apparent KD of MS2 coat protein [1]: 29 nM
AAGGUGUUAGGAUAUCGAAGGUUGUGGCAGGCGGGAAUUUGCGAGAAGGAACAUGAGGAUCACCCAUGUAAAAU [JR_Exclu4_Sub042] (puzzle: Exclusion 4)			25 nM	
AAGUAACAUGAGGAUCACCCAUGUUAGGAUAUCUCGGCCACAGGAUCCCUGUGAAGCCAGAGAAGGAGCGGGUG [Ceraso] (Eterna round: R97, puzzle: Exclusion 1)	169 nM	202 nM		
AAGUAGGAUGUUAGGAUAUCGCCCUCGCAAUAGGGCGAGAAGGGACAUGAGGAUCACCCAUGUAGGCGAUAGAA [Laedesed] (Eterna round: R97, puzzle: Brourd's mod of Exclusion 4)	29.3 nM	16.9 nM		
AAGUAGUGACAGGAUAUUGUUCAUGAUAUGGAACAAGAAGGGUUAACAUGAGGAUCACCCAUGUAUCCUCCGUG [Eternabot (L2) Solution 14] (Eterna round: R97, puzzle: Exclusion 6)	401 nM	44.9 nM		
AAGUAUCAUGUAGGAUAUGCUAACCGAACGUUAGCAGAAGGACAUGAGGAUCACCCAUGUUCUCAUCUGUAAGAACAGAUGUCU [Ex NG1 #6] (Eterna round: R96, puzzle: Exclusion NG 1)	27.9 nM	15.5 nM		apparent KD of MS2 coat protein [1]: 12.6 nM
AAUAACAAGCUGAUCCUAAACAUGAGGAUCACCCAUGUGCUCGUCUUGUAAAGUACUAUCACGAAAGUGAUAGUACA [MOD7 of my MOD of Eli's v1-59 (mutation at 11 A to U)] (Eterna round: R97, puzzle: Sensor, turn-off variant 1)	118 nM	142 nM		

Sequence	apparent KD of MS2 coat protein (input ligand: FMN 200 uM)	apparent KD of MS2 coat protein (input ligand: none)	apparent KD of MS2 coat protein [3]	further results
AAUAACAGAGGAUAUACUAUUUUAUGUAUUUAUUAUUUUAAACAUGAGGAUCACCCAUGUAGAAGGCUGAUUAA [JMF 42] (puzzle: Exclusion 2)			30.8 nM	
AAUAACAGAGGAUAUACUGUUUUAUGUAUUUAUUAUUUUGAACAUGAGGAUCACCCAUGUAGAAGGCUGAUUAA [JMF 48] (puzzle: Exclusion 2)			29.6 nM	
AAUAACUGAGGAUAUACUAUAAUAUGAAUAAAAUAAAUAAAACAUGAGGAUCACCCAUGUAGAAGGCAGAAUAA [JMF's Not so obvious solution 9] (puzzle: Exclusion 2)			17.8 nM	apparent KD of MS2 coat protein [2]: 23.2 nM; apparent KD of MS2 coat protein [4]: 24.1 nM
AAUAAGAAGUAAGGAUAUCUGAAAGGAAGUGUAAGAGAAGGUACGGUGACGUCAGAACGACAUGAGGAUCACCCAUGUAAAGAA [PowerStrip EXNG 1.11] (Eterna round: R96, puzzle: Exclusion NG 1)	79 nM	93.9 nM		apparent KD of MS2 coat protein [1]: 69.6 nM
AAUAAGCUAGGAUAUACAUGAGGAUCACCCAUGUGAGGGCACGGCCGGCGCGGGCCCGGUAGAAGGAGUCAUAA [Exc;s3-VI] (puzzle: Exclusion 3)			26.4 nM	
AAUAAGGGAGGAUAUACAUGAGGAUCACCCAUGUUUGUAAUUUAAUUCGGGAGUAUUAGUAGAAGGCCCAAUAA [lam1] (Eterna round: R97, puzzle: Exclusion 3)	278 nM	59.5 nM		
AAUAAUUGUGACUUGGGUGACAUGAGGAUCACCCAUGUCACAAGCUUGUUGCUCGCCUUGUAAUUAACCCAUGUCAC [LRO Sensor-off var1-27 mod of Stov1-13-A1 by Brourd] (Eterna round: R97, puzzle: Sensor, turn-off variant 1)	22.2 nM	20.8 nM		
AAUACAAGCUAUUGAUCCCACAUGAGGAUCACCCAUGUACCUGGCCGUGAGACCAGGUUUACAAUAGCUCGUCUUAU [Sensor-V1 #48] (Eterna round: R97, puzzle: Sensor, turn-off variant 1)	107 nM	93.8 nM		
AAUACAAGCUAUUGAUCCCACAUGAGGAUCACCCAUGUAGGAGGCGGUGACACCUCCUUUACGAUAGCUCGUCUUAU [Sensor-V1 #53] (Eterna round: R97, puzzle: Sensor, turn-off variant 1)	213 nM	219 nM		
AAUACAAGCUAUUGAUCCCACAUGAGGAUCACCCAUGUAUAUGCCGGUGACACCUGCAUGACGAUAGCUCGUCUUAU [Sensor-V1 #59] (Eterna round: R97, puzzle: Sensor, turn-off variant 1)	577 nM	758 nM		
AAUACCCUGUUAGGAUAUAAUACCGAAGGAGUAUUAGAAGGGACAGUAAGGUACAUGAGGAUCACCCAUGUGAGAAUCUGUGCC [Edanxeve] (Eterna round: R96, puzzle: Exclusion NG 1)	107 nM	75.4 nM		apparent KD of MS2 coat protein [1]: 65.3 nM
AAUAGCAAGUAGAUCCUAAACAUGAGGAUCACCCAUGUGCUCGUCUUGUAAAGUACUAUCACGAAAGUGAUAGUACA [Sensor 3, v1 - 57] (puzzle: Sensor v3, turn-off variant 1)			300 nM	apparent KD of MS2 coat protein [2]: 151 nM; apparent KD of MS2 coat protein [4]: 233 nM
AAUCCACAUGAGGAUCACCCAUGUGAGGAUAUGAUACUAUGUACUUCGGUACAUAGUAUCAGAAGGCACAUAAA [Ex1-3: 51] (Eterna round: R96, puzzle: Exclusion 1)	153 nM	27.8 nM		apparent KD of MS2 coat protein [1]: 25.8 nM
AAUCCACAUGAGGAUCACCCAUGUGAGGAUAUGAUACUAUGUACUUCGGUACAUAGUAUCAGAAGGCACAUAAA [Ex1-3: 51] (puzzle: Exclusion 1)			28.4 nM	
AAUGAUUGACGAGGAUAUUGUGUUAGAUCACGACGAGAAGGCGUCUGUCACAUGAGGAUCACCCAUGUGAGCCUGGUGGAUGGG [Ex NG1 #79] (Eterna round: R96, puzzle: Exclusion NG 1)	41.7 nM	26.7 nM		apparent KD of MS2 coat protein [1]: 22.3 nM
AAUGAUUGAUGAGGAUAUUGUGGUGAAACACGACGAGAAGGCAUAUGUCACAUGAGGAUCACCCAUGUGAGCUUUGUGGAUAUA [Ex NG1 #67] (Eterna round: R96, puzzle: Exclusion NG 1)				apparent KD of MS2 coat protein [1]: 18.3 nM
AAUGCCAGAGGAUAUACAUGAGGAUCACCCAUGUUAAAUGAUCCUGUGCUAGAUGCACGUAGAAGGCUGUAAAA [EX3 A.8] (Eterna round: R97, puzzle: Exclusion 3)	15.5 nM	12.9 nM		
